Results on one molecule are retold here after PMC11994318, “In vitro characterization of the yeast DEAH/RHA RNA helicase Dhr1” (The Journal of Biological Chemistry, 2025).

By Kd is commonly meant the free concentration of one partner at which half of the binding sites on the other are occupied at equilibrium, for simple one-to-one binding.

In data set [1] the target is T1, ΔN-Dhr1-ΔSKTTD (Saccharomyces cerevisiae, UniProt Q04217 376-665+671-1267, internal_change).
T1 sequence: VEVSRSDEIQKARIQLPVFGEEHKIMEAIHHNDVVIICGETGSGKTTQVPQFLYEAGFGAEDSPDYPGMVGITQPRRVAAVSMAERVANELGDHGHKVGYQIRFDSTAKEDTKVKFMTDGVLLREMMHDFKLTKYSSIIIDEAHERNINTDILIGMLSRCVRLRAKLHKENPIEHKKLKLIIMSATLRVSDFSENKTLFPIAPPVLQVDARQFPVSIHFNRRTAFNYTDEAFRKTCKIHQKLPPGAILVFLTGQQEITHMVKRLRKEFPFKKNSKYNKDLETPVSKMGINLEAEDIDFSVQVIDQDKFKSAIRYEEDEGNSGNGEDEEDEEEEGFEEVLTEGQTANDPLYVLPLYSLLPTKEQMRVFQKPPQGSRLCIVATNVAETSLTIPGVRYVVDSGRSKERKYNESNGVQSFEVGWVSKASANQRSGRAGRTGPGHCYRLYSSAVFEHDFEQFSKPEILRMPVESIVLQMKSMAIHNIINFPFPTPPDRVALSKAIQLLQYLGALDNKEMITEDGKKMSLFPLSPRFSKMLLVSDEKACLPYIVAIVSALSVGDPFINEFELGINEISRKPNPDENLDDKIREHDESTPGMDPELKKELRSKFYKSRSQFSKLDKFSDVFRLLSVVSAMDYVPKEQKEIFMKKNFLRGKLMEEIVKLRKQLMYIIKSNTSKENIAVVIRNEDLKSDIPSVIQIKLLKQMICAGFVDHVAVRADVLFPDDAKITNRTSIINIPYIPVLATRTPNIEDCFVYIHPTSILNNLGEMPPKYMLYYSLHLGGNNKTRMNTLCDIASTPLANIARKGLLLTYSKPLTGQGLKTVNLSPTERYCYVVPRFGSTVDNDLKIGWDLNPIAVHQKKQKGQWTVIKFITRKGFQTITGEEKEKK
Nature of the data set: fluorescence polarization; no nucleotide; 10 mM Mg2+; 40 mM Tris-HCl pH 8.0, 40 mM KCl, 150 mM NaCl, 2 mM NaOAc, 2 mM DTT, 10 mM MgCl2, 4% glycerol, 0.05% Tween 20, 25 °C, 10 min; 1.25 nM RNA, 0.625 nM-20 µM protein. The conditions noted are these: protein: recombinant; tags: C-terminal His6 (pET21a); label: 5' 6-FAM; single strand. On the technique in general: Fluorescence polarisation rises when a labelled molecule tumbles more slowly, as on binding a larger partner.

The target of data set [2] is T2, ΔN-Dhr1-WT (Saccharomyces cerevisiae, UniProt Q04217 376-1267).
T2 sequence: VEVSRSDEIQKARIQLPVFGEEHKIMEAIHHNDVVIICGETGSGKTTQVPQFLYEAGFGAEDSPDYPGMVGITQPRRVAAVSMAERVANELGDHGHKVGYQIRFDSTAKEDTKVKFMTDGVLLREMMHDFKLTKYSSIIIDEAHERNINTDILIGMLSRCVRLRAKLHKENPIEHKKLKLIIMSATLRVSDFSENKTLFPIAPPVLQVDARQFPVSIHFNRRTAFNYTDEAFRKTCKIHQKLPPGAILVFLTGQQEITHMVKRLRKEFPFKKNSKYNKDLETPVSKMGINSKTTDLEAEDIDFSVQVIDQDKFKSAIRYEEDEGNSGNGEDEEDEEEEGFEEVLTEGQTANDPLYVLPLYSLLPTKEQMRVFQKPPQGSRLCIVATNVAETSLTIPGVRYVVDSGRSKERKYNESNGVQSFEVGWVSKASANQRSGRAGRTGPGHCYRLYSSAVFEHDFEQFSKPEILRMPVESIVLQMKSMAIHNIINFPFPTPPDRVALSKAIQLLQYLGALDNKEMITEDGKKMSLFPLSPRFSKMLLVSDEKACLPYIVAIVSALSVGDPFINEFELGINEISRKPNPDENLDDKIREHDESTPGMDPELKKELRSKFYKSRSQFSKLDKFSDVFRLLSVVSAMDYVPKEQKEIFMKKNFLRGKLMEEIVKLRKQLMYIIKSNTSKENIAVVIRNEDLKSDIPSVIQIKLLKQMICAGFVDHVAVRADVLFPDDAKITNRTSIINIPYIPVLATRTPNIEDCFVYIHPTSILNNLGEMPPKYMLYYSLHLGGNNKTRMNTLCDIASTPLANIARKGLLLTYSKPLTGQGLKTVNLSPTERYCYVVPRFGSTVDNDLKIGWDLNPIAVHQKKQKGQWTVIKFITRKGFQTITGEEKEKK
The data set is described as above. The conditions noted are these: protein: recombinant; tags: C-terminal His6 (pET21a); label: 5' 6-FAM; single strand.

B1: U20 (ssRNA)
RNA: UUUUUUUUUUUUUUUUUUUU
For the molecule B1, the Kd in data set [1] worked out at 60 ± 10 nM; in data set [2], 300 ± 20 nM.
